Biological target: cellular IGF-1 receptors (UniProt P24062)
Assay: cell-based or functional assay

Chain of UniProt P24062 (P24062 31-1370): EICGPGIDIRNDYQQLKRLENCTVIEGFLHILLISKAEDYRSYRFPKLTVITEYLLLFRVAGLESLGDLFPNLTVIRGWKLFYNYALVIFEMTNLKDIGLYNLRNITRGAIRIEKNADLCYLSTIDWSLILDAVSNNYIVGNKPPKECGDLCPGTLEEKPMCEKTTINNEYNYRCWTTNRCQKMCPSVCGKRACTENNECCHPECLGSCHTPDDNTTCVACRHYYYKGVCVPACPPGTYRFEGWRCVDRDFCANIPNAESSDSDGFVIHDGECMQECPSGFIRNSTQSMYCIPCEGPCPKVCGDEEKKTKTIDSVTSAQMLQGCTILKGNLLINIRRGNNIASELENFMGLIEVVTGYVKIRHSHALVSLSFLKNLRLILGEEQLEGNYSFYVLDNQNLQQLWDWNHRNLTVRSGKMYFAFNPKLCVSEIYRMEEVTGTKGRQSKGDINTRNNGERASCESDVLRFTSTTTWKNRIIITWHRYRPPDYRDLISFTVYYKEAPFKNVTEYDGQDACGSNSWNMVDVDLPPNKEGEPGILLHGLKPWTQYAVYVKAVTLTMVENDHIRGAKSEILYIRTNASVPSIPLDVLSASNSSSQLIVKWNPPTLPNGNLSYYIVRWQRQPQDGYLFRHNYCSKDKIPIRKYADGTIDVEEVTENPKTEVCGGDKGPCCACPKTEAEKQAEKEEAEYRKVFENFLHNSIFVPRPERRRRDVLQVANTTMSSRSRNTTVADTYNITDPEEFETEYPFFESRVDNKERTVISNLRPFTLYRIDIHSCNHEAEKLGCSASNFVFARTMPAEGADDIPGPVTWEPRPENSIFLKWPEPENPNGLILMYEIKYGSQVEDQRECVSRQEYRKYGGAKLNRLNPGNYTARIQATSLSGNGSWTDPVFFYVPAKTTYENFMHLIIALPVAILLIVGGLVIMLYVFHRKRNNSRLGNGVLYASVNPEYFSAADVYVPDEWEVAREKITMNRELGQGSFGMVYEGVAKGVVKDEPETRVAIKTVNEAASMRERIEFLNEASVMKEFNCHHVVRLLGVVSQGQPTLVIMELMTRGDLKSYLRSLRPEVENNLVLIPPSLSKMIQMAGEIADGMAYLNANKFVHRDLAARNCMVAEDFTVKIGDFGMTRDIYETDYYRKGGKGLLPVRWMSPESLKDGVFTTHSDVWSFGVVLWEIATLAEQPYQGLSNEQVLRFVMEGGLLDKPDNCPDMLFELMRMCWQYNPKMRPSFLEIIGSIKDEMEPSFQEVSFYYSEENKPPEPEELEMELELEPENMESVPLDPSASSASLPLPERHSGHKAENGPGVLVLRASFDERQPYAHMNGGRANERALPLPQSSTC

Substance “HB-IGF-1 fusion protein (heparin-binding domain of human HB-EGF with a single cysteine-to-serine mutation fused to the amino-terminus of a mature IGF-1 protein) (from UniProt P05019 49-118)” has a sulfate incorporation into meniscal cartilage, normalized to saline injection, four days after injection (fold of saline) of 1.82 and a sulfate incorporation into meniscal cartilage, normalized to saline injection, two days after injection (fold of saline) of 2.1.

Reference: US20150166628A1
